Test results published in publication PMC2267159 (BMC Biology, 2008).

Biological target: the molecule itself
Assay: SDS-PAGE

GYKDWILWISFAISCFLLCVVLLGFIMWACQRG [TMD peptide of HA2 (strain X:31) of influenza virus, unlabeled]: binds.
